# From patent US20070292390A1
# Assays:
# [1] = molecular target: tethered gp140 89.6 (HIV-1 isolate 89.6) (UniProt Q73372); assay: competition ELISA; competitor (coated): Fab m43; biotinylated gp140 89.6; competing antibody at 12 µg/ml
# [2] = molecular target: tethered gp140 89.6 (HIV-1 isolate 89.6) (UniProt Q73372); assay: competition ELISA; competitor (coated): Fab m45; biotinylated gp140 89.6; competing antibody at 12 µg/ml
# [3] = molecular target: tethered gp140 89.6 (HIV-1 isolate 89.6) (UniProt Q73372); assay: competition ELISA; competitor (coated): Fab m48; biotinylated gp140 89.6; competing antibody at 12 µg/ml
# [4] = molecular target: tethered gp140 89.6 (HIV-1 isolate 89.6) (UniProt Q73372); assay: competition ELISA; competitor (coated): Fab m44; biotinylated gp140 89.6; competing antibody at 12 µg/ml
# [5] = molecular target: tethered gp140 89.6 (HIV-1 isolate 89.6) (UniProt Q73372); assay: competition ELISA; competitor (coated): Fab m47; biotinylated gp140 89.6; competing antibody at 12 µg/ml
Substance,"Inhibition, % [1] [%]","Inhibition, % [2] [%]","Inhibition, % [3] [%]","Inhibition, % [4] [%]","Inhibition, % [5] [%]"
Fab Z13,72,0,87,57,41
IgG 2F5 (antibody),51,0,74,38,31
IgG 4E10 (antibody),29,6,63,42,10
